Where no end group is shown, it is not given here.
target: T1, Chk1 kinase (Homo sapiens, UniProt O14757); test: Peptide substrates tested for activity as Chk1 substrates; type: biochemical; conditions: Syntide 2 = 100%
T1 construct: 2 (KH289); made in house; host or cells: baculovirus (Bac-to-Bac, pFastBac-Nde) in Hi-5 insect cells
T1 sequence (O14757 1-289): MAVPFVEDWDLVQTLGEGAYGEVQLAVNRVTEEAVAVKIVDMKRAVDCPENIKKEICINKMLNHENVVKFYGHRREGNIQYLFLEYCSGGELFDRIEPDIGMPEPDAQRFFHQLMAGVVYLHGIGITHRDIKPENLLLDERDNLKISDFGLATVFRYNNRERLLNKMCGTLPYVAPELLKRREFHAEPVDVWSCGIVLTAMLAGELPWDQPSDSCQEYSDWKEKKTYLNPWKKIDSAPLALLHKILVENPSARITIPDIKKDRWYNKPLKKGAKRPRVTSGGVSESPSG
Description: The enzymatic activity of a kinase is measured by its ability to catalyze the transfer of a phosphate residue from a nucleoside triphosphate to an amino acid side chain in a selected protein target. The conversion of ATP to ADP generally accompanies the catalytic reaction. Herein, a synthetic substrate peptide, Syntide-2, having amino acid sequence PLARTLSVAGLPGKK (SEQ ID NO. 11) was utilized. The production of ADP from ATP that accompanies phosphoryl transfer to the substrate was coupled to oxidation of NADH using phosphoenolpyruvate (PEP) through the actions of pyruvate kinase (PK) and lactic dehydrogenase (LDH). The oxidation of NADH was monitored by following the decrease of absorbance at 340 nm (e340=6.22 cm−1 mM−1) using a HP8452 spectrophotometer. Typical reaction solutions contained: 4 mM PEP, 0.15 mM NADH, 28 units of LDH/mL, 16 units of PK/mL, 3 mM DTT, 0.125 mM Syntide-2, 0.15 mM ATP and 25 mM MgCl2 in 50 mM TRIS pH 7.5; 400 mM NaCl. Assays were initiated with 10 nM of kinase domain of Chk1, KH289. Ki values were determined by measuring initial enzyme activity in the presence of varying concentrations of inhibitors. The data were analyzed using Enzyme Kinetic and Kaleidagraph software.
The following substrates were tested for peptide content and activity:
As described in detail below, an aspect of the invention involves a nonradioactive ELISA based assay suitable for high throughput screening (HTS). The development of the ELISA based CHK1 kinase HTS assay was first initiated with a monoclonal anti-phosphoserine antibody called Clone PSR-45, supplied by Sigma. New Chk peptide substrates, analogues of Syntide2, were synthesized to validate this assay. Biotin-Syntide-2 (SEQ ID NO. 12), and N-terminus acetylated Syntide-2 (SEQ ID NO. 13) and the expected peptide products after CHK phosphorylation, serine phosphorylated Syntide 2 (SEQ ID NO. 15), and serine phosphorylated biotin-Syntide 2 (SEQ ID NO. 16) were synthesized for assay development. […]

| Activity (peptide substrate) [%] | Substance |
| --- | --- |
| 100 | PLARTLSVAGLPGKK [Syntide 2, synthetic substrate peptide, reference compound] |
| 72 | Ac-PLARTLSVAGLPG-AGAGAGAK (Ac-PLARTLSVAGLPGAGAGAGAK) [Syntide 4, N-terminus acetylated analogue of Syntide 2] |

| Substance | Activity (peptide substrate) [%] |
| --- | --- |
| KAGAG-PLARTLSVAGLPG-Biotin-K [Syntide 3] | 67 |

— patent US6670167B1, “Catalytic domain of the human effector cell cycle checkpoint protein kinase materials and methods for identification of inhibitors thereof” (Agouron Pharmaceuticals, Inc., priority 1999, dated 2003)
